According to PMC8116589, “Distinguishing Signal From Noise in Immunopeptidome Studies of Limiting-Abundance Biological Samples: Peptides Presented by I-A^b in C57BL/6 Mouse Thymus” (Frontiers in Immunology, 2021):
Blank lines part the entries; values can stand above or below the binder they belong to. Where no end group is shown, it is not given here.

Target: soluble I-A^b-3R, mouse MHC-II protein (recombinant I-A^b) (mouse)
Experiment: fluorescence polarisation; competition: 100 nM I-A^b-3R (3R cut off by thrombin, 1 U/ug), 25 nM Alexa488-labeled CLIP probe peptide, test peptide from 100 uM in 5-fold dilutions, 0.5 uM HLA-DM, read after 72 h at 37 C; 100 mM sodium citrate, 50 mM NaCl, 0.1% octyl glucoside, 5 mM EDTA, 1 mM DTT; three independent experiments, mean and SD

- IC50: 445 nM
B1: … (B-cell receptor CD22 peptide) (peptide)
peptide: NDWTVDHPQTLFAWEG

- IC50: 2250 nM
B2: … (Protein EVI2B peptide) (peptide)
peptide: KPTVTVVSPLPNDSINPQP

- IC50: 1920 nM
B3: … (Protein tyrosine phosphatase receptor type C-associated protein peptide) (peptide)
peptide: SDLHAFSGSAAWDDSAG

- IC50: 57500 nM
B4: … (D-3-phosphoglycerate dehydrogenase peptide) (peptide)
peptide: AGTGVDNVDLEAATR
modifications: not fully specified

- IC50: 466 nM
B5: … (Fc receptor-like A peptide) (peptide)
peptide: GPGSREAASPVAITVQE

- IC50: 13600 nM
B6: … (Histone H2AX peptide) (peptide)
peptide: AVLLPKKSSATVGPKAPAVGK

- IC50: 1090 nM
B7: … (Protein tyrosine phosphatase receptor type C-associated protein peptide) (peptide)
peptide: SDLHAFSGSAAWDDS

- IC50: 3450 nM
B8: … (Retinoid-inducible serine carboxypeptidase peptide) (peptide)
peptide: KWKALYTDPKSSETA

- IC50: 378 nM
B9: … (Inter alpha-trypsin inhibitor, heavy chain 4 peptide) (peptide)
peptide: AGKLQDQGPDVLLAKVS

- IC50: 2420 nM
B10: … (E3 ubiquitin-protein ligase RNF13 peptide) (peptide)
peptide: AQRAGYKAAIVHNVDS

- IC50: 152 nM
B11: … (Protein Siglecg peptide) (peptide)
peptide: QVLSWSSPVGSRTLA

- IC50: 4960 nM
B12: … (Protein Ighv2-2 peptide) (peptide)
peptide: GGSTDYNAAFISRLS

- IC50: 179 nM
B13: … (Complement receptor type 2 peptide) (peptide)
peptide: LLPKYSFAKPSIVSDK

- IC50: 12800 nM
B14: … (Tissue alpha-L-fucosidase peptide) (peptide)
peptide: GIVNLKSPKTTSATKI

- IC50: 1360 nM
B15: … (T-lymphocyte surface antigen Ly-9 peptide) (peptide)
peptide: HLNTYDGSHTLRVSQS

- IC50: 250 nM
B16: … (Alpha-N-acetylglucosaminidase peptide) (peptide)
peptide: IRRYGVSQPDAVAAWK
modifications: not fully specified

- IC50: 54400 nM
B17: … (Phosphoglycerate mutase 2 peptide) (peptide)
peptide: LNLPTGIPIVYEL
modifications: not fully specified

- IC50: 970 nM
B18: … (Protein Igha peptide) (peptide)
peptide: KDITTVNFPPALASGGG

- IC50: 1370 nM
B19: … (Marginal zone B- and B1-cell-specific protein peptide) (peptide)
peptide: IYEAYRQGQANLEAL

- IC50: 74100 nM
B20: … (Cathepsin S peptide) (peptide)
peptide: YSMGMHTYQVG

- IC50: 2300 nM
B21: … (CCR4-NOT transcription complex subunit 3 peptide) (peptide)
peptide: APTSALGPKASPAPS
